Test results from IntAct's records for PubMed 29892012.

B1: Coiled-coil alpha-helical rod protein 1 (Homo sapiens), Q8TD31 (parent)
chain: MFPPSGSTGLIPPSHFQARPLSTLPRMAPTWLSDIPLVQPPGHQDVSERRLDTQRPQVTMWERDVSSDRQEPGRRGRSWGLEGSQALSQQAEVIVRQLQELRRLEEEVRLLRETSLQQKMRLEAQAMELEALARAEKAGRAEAEGLRAALAGAEVVRKNLEEGSQRELEEVQRLHQEQLSSLTQAHEEALSSLTSKAEGLEKSLSSLETRRAGEAKELAEAQREAELLRKQLSKTQEDLEAQVTLVENLRKYVGEQVPSEVHSQTWELERQKLLETMQHLQEDRDSLHATAELLQVRVQSLTHILALQEEELTRKVQPSDSLEPEFTRKCQSLLNRWREKVFALMVQLKAQELEHSDSVKQLKGQVASLQEKVTSQSQEQAILQRSLQDKAAEVEVERMGAKGLQLELSRAQEARRRWQQQTASAEEQLRLVVNAVSSSQIWLETTMAKVEGAAAQLPSLNNRLSYAVRKVHTIRGLIARKLALAQLRQESCPLPPPVTDVSLELQQLREERNRLDAELQLSARLIQQEVGRAREQGEAERQQLSKVAQQLEQELQQTQESLASLGLQLEVARQGQQESTEEAASLRQELTQQQELYGQALQEKVAEVETRLREQLSDTERRLNEARREHAKAVVSLRQIQRRAAQEKERSQELRRLQEEARKEEGQRLARRLQELERDKNLMLATLQQEGLLSRYKQQRLLTVLPSLLDKKKSVVSSPRPPECSASAPVAAAVPTRESIKGSLSVLLDDLQDLSEAISKEEAVCQGDNLDRCSSSNPQMSS
partner: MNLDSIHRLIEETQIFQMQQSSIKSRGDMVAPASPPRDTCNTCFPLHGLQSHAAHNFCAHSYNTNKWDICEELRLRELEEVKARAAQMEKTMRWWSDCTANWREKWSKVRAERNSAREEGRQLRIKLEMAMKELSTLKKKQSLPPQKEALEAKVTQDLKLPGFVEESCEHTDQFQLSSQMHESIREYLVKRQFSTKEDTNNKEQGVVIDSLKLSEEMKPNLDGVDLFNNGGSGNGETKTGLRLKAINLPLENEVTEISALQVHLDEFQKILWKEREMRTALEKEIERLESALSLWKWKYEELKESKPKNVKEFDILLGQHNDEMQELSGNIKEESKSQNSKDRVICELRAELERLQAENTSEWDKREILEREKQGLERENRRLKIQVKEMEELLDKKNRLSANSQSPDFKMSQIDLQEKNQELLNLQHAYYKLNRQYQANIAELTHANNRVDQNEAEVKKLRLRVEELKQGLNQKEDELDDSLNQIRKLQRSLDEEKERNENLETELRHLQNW
B2: Coiled-coil alpha-helical rod protein 1 (Homo sapiens), Q8TD31 (parent)
chain: B1 chain
partner: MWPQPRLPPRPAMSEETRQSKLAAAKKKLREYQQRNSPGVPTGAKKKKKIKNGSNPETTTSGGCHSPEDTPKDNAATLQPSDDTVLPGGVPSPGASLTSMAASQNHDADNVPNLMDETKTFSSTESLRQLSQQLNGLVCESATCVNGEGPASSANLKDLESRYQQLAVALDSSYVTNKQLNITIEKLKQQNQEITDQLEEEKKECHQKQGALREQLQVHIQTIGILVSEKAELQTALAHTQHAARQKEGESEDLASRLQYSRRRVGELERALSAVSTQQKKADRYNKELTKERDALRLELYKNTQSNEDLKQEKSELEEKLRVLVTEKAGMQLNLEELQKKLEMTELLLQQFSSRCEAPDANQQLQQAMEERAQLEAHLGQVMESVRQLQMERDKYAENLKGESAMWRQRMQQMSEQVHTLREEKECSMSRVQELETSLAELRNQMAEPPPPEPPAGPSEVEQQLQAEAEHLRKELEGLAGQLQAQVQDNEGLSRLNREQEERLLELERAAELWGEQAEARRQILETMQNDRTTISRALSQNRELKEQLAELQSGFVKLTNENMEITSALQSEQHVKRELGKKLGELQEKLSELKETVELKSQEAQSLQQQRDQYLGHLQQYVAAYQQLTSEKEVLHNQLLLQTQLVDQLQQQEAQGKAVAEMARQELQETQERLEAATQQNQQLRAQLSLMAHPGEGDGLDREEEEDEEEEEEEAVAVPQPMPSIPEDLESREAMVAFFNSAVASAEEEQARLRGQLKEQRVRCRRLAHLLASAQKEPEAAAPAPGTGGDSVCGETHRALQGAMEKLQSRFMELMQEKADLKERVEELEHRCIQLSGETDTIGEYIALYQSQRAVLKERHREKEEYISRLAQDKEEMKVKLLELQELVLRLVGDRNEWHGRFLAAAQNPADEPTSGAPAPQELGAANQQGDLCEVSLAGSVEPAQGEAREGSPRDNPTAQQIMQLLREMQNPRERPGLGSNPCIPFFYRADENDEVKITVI
B3: E3 ubiquitin-protein ligase LNX (Homo sapiens), Q8TBB1 (parent)
chain: MNQPESANDPEPLCAVCGQAHSLEENHFYSYPEEVDDDLICHICLQALLDPLDTPCGHTYCTLCLTNFLVEKDFCPMDRKPLVLQHCKKSSILVNKLLNKLLVTCPFREHCTQVLQRCDLEHHFQTSCKGASHYGLTKDRKRRSQDGCPDGCASLTATAPSPEVSAAATISLMTDEPGLDNPAYVSSAEDGQPAISPVDSGRSNRTRARPFERSTIRSRSFKKINRALSVLRRTKSGSAVANHADQGRENSENTTAPEVFPRLYHLIPDGEITSIKINRVDPSESLSIRLVGGSETPLVHIIIQHIYRDGVIARDGRLLPGDIILKVNGMDISNVPHNYAVRLLRQPCQVLWLTVMREQKFRSRNNGQAPDAYRPRDDSFHVILNKSSPEEQLGIKLVRKVDEPGVFIFNVLDGGVAYRHGQLEENDRVLAINGHDLRYGSPESAAHLIQASERRVHLVVSRQVRQRSPDIFQEAGWNSNGSWSPGPGERSNTPKPLHPTITCHEKVVNIQKDPGESLGMTVAGGASHREWDLPIYVISVEPGGVISRDGRIKTGDILLNVDGVELTEVSRSEAVALLKRTSSSIVLKALEVKEYEPQEDCSSPAALDSNHNMAPPSDWSPSWVMWLELPRCLYNCKDIVLRRNTAGSLGFCIVGGYEEYNGNKPFFIKSIVEGTPAYNDGRIRCGDILLAVNGRSTSGMIHACLARLLKELKGRITLTIVSWPGTFL
partner: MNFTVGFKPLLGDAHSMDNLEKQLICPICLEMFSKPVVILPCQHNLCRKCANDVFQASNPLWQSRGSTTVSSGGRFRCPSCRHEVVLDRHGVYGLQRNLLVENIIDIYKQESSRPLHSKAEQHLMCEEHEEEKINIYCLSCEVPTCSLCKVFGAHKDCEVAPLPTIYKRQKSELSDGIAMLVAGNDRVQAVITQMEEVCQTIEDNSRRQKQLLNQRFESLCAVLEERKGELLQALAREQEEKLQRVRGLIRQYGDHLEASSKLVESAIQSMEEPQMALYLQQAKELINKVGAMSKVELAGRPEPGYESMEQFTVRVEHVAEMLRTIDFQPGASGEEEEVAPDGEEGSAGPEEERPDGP
B4: E3 ubiquitin-protein ligase LNX (Homo sapiens), Q8TBB1 (parent)
chain: B3 chain
partner: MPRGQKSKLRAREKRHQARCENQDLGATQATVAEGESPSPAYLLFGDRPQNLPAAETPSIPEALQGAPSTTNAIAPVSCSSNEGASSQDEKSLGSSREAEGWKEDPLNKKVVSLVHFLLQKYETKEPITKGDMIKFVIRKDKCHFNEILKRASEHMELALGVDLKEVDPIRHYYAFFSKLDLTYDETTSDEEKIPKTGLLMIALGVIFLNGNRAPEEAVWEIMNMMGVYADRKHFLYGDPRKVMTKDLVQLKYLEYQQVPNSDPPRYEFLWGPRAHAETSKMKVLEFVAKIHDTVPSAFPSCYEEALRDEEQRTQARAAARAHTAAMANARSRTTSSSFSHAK

Variants of: B1
Conditions: with CCDC102B

Variant | effect of a mutation on the interaction
W337R | disrupting interaction strength

Variants of: B2
Conditions: with goga2_human GOLGA2, Q08379

Variant | effect of a mutation on the interaction
W337R | disrupting interaction strength

Variants of: B3
Conditions: with tri54_human TRIM54, Q9BYV2

Variant | effect of a mutation on the interaction
E295K | disrupting interaction strength

Variants of: B4
Conditions: with magbi_human MAGEB18, Q96M61

Variant | effect of a mutation on the interaction
E295K | disrupting interaction strength
